Laboratory results published in patent US20190338002A1 (Pieris, published 2019).

What was measured:
[1] = target: T1, human alpha CGRP (SEQ ID NO: 80) (human, not fully specified); experiment: cell-based or functional assay
T1 peptide: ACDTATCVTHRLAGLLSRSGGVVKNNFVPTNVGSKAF

[2] = target: T2, rat beta CGRP (SEQ ID NO: 83) (rat, not fully specified); experiment: cell-based or functional assay
T2 peptide: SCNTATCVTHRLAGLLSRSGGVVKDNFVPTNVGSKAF

[3] = target: T3, rat alpha CGRP (SEQ ID NO: 82) (rat); experiment: cell-based or functional assay
T3 peptide: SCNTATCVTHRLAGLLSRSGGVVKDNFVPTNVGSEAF

[4] = target: T4, human beta CGRP (SEQ ID NO: 81) (human, not fully specified); experiment: cell-based or functional assay
T4 peptide: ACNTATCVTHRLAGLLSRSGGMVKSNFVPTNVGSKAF

[5] = target: T1, human alpha CGRP (SEQ ID NO: 80); experiment: SPR, 37 C, mutein captured, CGRP analyte
Protocol: (§1) The Biotin CAPture Kit (GE Healthcare) was used to immobilize biotinylated lipocalin muteins to a chip surface. Muteins were biotinylated using standard NHS chemistry. Undiluted Biotin CAPture Reagent (streptavidin conjugated with ss-DNA oligo) was captured on a Sensor Chip CAP with the pre-immobilized complementary ss-DNA oligo. Thereafter, biotinylated muteins at 1 μg/mL were applied for 300 s at a flow rate of 5 μL/min.
(§2) CGRP species were applied in three concentrations of 30 nM, 3 nM and 0.3 nM at a flow rate of 30 μL/min or in a single concentration of 25 nM per cycle as shown in FIG. 2. The dilutions were injected with association times of 180 s and dissociation times of 5400 sec to obtain ka and kd information. Regeneration of the chip surface was achieved by injecting 6 M Guanidinium-HCl+0.25 M NaOH (120 s) with a flow rate of 10 μL/min. Injection of regeneration solutions was followed by an extra wash step with HBS-EP+(1×; BR-1006-69; GE Healthcare) running buffer and a stabilization period of 120 s.
(§3) The data were double-referenced by subtraction of the corresponding signals measured for the control channel (loaded with Biotin CAPture reagent only) and by subtraction of buffer injections from the binding responses. Association rate constant ka and dissociation rate constant kd for the binding reaction were determined using Biacore T200 Evaluation Software V2.0 for data processing and kinetic fitting. The data were globally fit with 1:1 binding model.

[6] = target: T2, rat beta CGRP (SEQ ID NO: 83); experiment: SPR, 37 C, mutein captured, CGRP analyte
Protocol: as §1, §2, §3

[7] = target: T3, rat alpha CGRP (SEQ ID NO: 82); experiment: SPR, 37 C, mutein captured, CGRP analyte
Protocol: as §1, §2, §3

[8] = target: T4, human beta CGRP (SEQ ID NO: 81); experiment: SPR, 37 C, mutein captured, CGRP analyte
Protocol: as §1, §2, §3

[9] = target: T1, human alpha CGRP (SEQ ID NO: 80); experiment: SPR Biacore 37 °C, mutein captured as ligand, sample PL1827 (ha CGRP) injected, 1:1 fit; repeat run 130903_NAN-DS-058 (not the run of Table 2) [contd]
Protocol: as §1, §2, §3

[10] = target: T4, human beta CGRP (SEQ ID NO: 81); experiment: SPR Biacore 37 °C, mutein captured as ligand, hb CGRP (1-37) injected, 1:1 fit; repeat run 130208_NAN-DS-047 (not the run of Table 2) [contd]
Protocol: as §1, §2, §3

[11] = target: T2, rat beta CGRP (SEQ ID NO: 83); experiment: SPR Biacore 37 °C, mutein captured as ligand, rb CGRP (1-37) injected, 1:1 fit; repeat run 130208_NAN-DS-047 (not the run of Table 2) [contd]
Protocol: as §1, §2, §3

[12] = target: T3, rat alpha CGRP (SEQ ID NO: 82); experiment: SPR Biacore 37 °C, mutein captured as ligand, ra CGRP (1-37) injected, 1:1 fit; repeat run 130208_NAN-DS-047 (not the run of Table 2) [contd]
Protocol: as §1, §2, §3

[13] = target: T1, human alpha CGRP (SEQ ID NO: 80); experiment: SPR Biacore 37 °C, mutein captured as ligand, ha CGRP (1-37) injected, 1:1 fit; repeat run 130208_NAN-DS-047 (not the run of Table 2) [contd]
Protocol: as §1, §2, §3

[14] = target: T1, human alpha CGRP (SEQ ID NO: 80); experiment: SPR, Biacore T200, 37 C; biotinylated mutein captured, human alpha CGRP analyte
Protocol: as §1, with “to immobilized” for “to immobilize”, “chemistry. Fifty-fold diluted” for “chemistry. Undiluted”, “at 200 nM” for “at 1 μg/mL”, “for 60” for “for 300”, “of 10” for “of 5”
The dilutions were injected with association times of 600 s and dissociation times of 1800 s. Regeneration of the chip surface was achieved by injecting 6 M Guanidinium-HCl+0.25 M NaOH (120 s) with a flow rate of 10 μL/min, followed by injecting 30% acetonitrile+0.25 M NaOH (120 s) with a flow rate of 10 μL/min. Injection of regeneration solutions was followed by an extra wash step with HBS-EP+ running buffer and a stabilization period of 60 s.
as §3, with “version 1.0” for “V2.0”

[15] = target: T1, human alpha CGRP (SEQ ID NO: 80); experiment: cell-based or functional assay

B1: lipocalin mutein SEQ ID NO: 14 (designed binder)
chain: QDSTSDLIPAPPLSKVPLQQNFQDNQFHGKWYVVGRAGNDALREDKDPEKMEATIYELKEDKSYNVTDVGFVQKKCMYVIHTFVPGSQPGEFTLGNIKSYPGVTSALVRVVSTNYNQHAMVFFKLVKQNRELFEITLYGRTKELTSELKENFIRFSKSLGLPENHIVFPVPIDQCIDGSAWSHPQFEK
notes: biotinylated by NHS chemistry for capture in SPR
- IC50, CGRP-induced cAMP production, SK-N-MC cells [1]: 0.15 nM
- IC50, CGRP-induced cAMP production, L6 cells [2]: 0.09 nM
- IC50, CGRP-induced cAMP production, L6 cells [3]: 0.12 nM
- IC50, CGRP-induced cAMP production, SK-N-MC cells [4]: 1.5 nM
- Kd [5]: 0.055 nM
- koff [5]: 0.000141 s⁻¹
- kon [5]: 2.56e+06 M⁻¹ s⁻¹
- Kd [6]: 0.107 nM
- koff [6]: 0.000181 s⁻¹
- kon [6]: 1.69e+06 M⁻¹ s⁻¹
- Kd [7]: 0.29 nM
- koff [7]: 0.000339 s⁻¹
- kon [7]: 1.19e+06 M⁻¹ s⁻¹
- Kd [8]: 0.031 nM
- koff [8]: 0.000141 s⁻¹
- kon [8]: 4.56e+06 M⁻¹ s⁻¹
- koff [9]: 0.000183 s⁻¹
- kon [9]: 3.44e+06 M⁻¹ s⁻¹

B2: lipocalin mutein SEQ ID NO: 15 (designed binder)
chain: QDSTSDLIPAPPLSKVPLQQNFQDNQFHGKWYVVGRAANDRLREDKDPEKMEATIYELKEDKSYNVTDVGFSRKKCIYVIHTFVPGSQPGEFTLGNIKSYPGTTSGLVRVVSTNYNQHAMVFFKVVGQNRESFEITLYGRTKELTSELKENFIRFSKSLGLPENHIVFPVPIDQCIDGSAWSHPQFEK
notes: as for B1
- koff [10]: 0.000309 s⁻¹
- kon [10]: 1.22e+07 M⁻¹ s⁻¹
- koff [11]: 0.000178 s⁻¹
- kon [11]: 2.31e+06 M⁻¹ s⁻¹
- Kd [5]: 0.038 nM
- koff [5]: 0.000238 s⁻¹
- kon [5]: 6.32e+06 M⁻¹ s⁻¹
- Kd [6]: 0.039 nM
- koff [6]: 0.000193 s⁻¹
- kon [6]: 4.98e+06 M⁻¹ s⁻¹
- Kd [7]: 0.17 nM
- koff [7]: 0.000274 s⁻¹
- kon [7]: 1.59e+06 M⁻¹ s⁻¹
- Kd [8]: 0.018 nM
- koff [8]: 0.000273 s⁻¹
- kon [8]: 1.53e+07 M⁻¹ s⁻¹
- koff [12]: 0.000295 s⁻¹
- kon [12]: 1.38e+06 M⁻¹ s⁻¹
- koff [13]: 0.000256 s⁻¹
- kon [13]: 5.23e+06 M⁻¹ s⁻¹

B3: tag-free lipocalin mutein SEQ ID NO: 87 (designed binder)
chain: GQDSTSDLIPAPPLSKVPLQQNFQDNQFQGKWYVVGWAGNTLLREDKDPIKMQAMIYELKEDKSYNVTWVYFADKKINYHIETFVPGSQPGEFTLGTIKSYPGETPILVRVVSTNYNQHAMVFFKGVNQNREIFEIVLYGRTKELTNELKENFIRFSKSLGLPENHIVFPVPIDQEIDG
notes: biotinylated by NHS chemistry for capture in SPR; also called tag-free mutein 87
- Kd [14]: 0.081 nM
- cAMP assay IC50 [15]: 0.66 nM

B4: tag-free lipocalin mutein SEQ ID NO: 88 (designed binder)
chain: GQDSTSDLIPAPPLSKVPLQQNFQDNQFHGKWYVVGRAGNDVLREDKDPEKMEATIYELKEDKSYNVTDVGFVQKRCMYVTHTFVPGSQPGEFTLGNIESYPGVTSALVRVVSTDYNQHAMVFVKLVKQNRELFEITLYGRTKELTSELKENFIRFSKSLGLPENHIVFPVPIDQCIDG
notes: biotinylated by NHS chemistry for capture in SPR; also called tag-free mutein 88
- Kd [14]: 0.008 nM
- cAMP assay IC50 [15]: 0.17 nM

B5: tag-free lipocalin mutein SEQ ID NO: 89 (designed binder)
chain: GQDSTSDLIPAPPLSKVPLQQNFQDNQFHGKWYVVGRAGNDVLREDKDPEKMEATIYELKEDKSYQVTDVGFVQKRCMYVTHTFVPGSQPGEFTLGNIESYPGVTSALVRVVSTDYNQHAMVFVKLVKQNRELFEITLYGRTKELTSELKENFIRFSKSLGLPENHIVFPVPIDQCIDD
notes: biotinylated by NHS chemistry for capture in SPR; also called tag-free mutein 89
- Kd [14]: 0.006 nM
- cAMP assay IC50 [15]: 0.17 nM

B6: tag-free lipocalin mutein SEQ ID NO: 90 (designed binder)
chain: GQDSTSDLKPAPPLSKVPLQQNFQDNQFHGKWYVVGRAGNDVLREDKDPEKMEATIYELKEDKSYNVTDVGFVQKRCMYVTHTFVPGSQPGEFTLGNIESYPGVTSALVRVVSTDYNQHAMVFVKLVKQNRELFEITLYGRTKELTSELKENFIRFSKSLGLPENHIVFPVPIDQCIDG
notes: biotinylated by NHS chemistry for capture in SPR; also called tag-free mutein 90
- Kd [14]: 0.012 nM
- cAMP assay IC50 [15]: 0.16 nM

B7: tag-free lipocalin mutein SEQ ID NO: 91 (designed binder)
chain: GQDSTSDLIHAPPLSKVPLQQNFQDNQFHGKWYVVGRAGNDVLREDKDPEKMEATIYELKEDKSYNVTDVGFVQKRCMYVTHTFVPGSQPGEFTLGNIESYPGVTSALVRVVSTDYNQHAMVFVKLVKQNRELFEITLYGRTKELTSELKENFIRFSKSLGLPENHIVFPVPIDQCIDG
notes: biotinylated by NHS chemistry for capture in SPR; also called tag-free mutein 91
- Kd [14]: 0.01 nM
- cAMP assay IC50 [15]: 0.16 nM

B8: tag-free lipocalin mutein SEQ ID NO: 92 (designed binder)
chain: GQDSTSDLKPAPPLSKVPLQQNFQDNQFHGKWYVVGRAGNDVLREDKDPEKMEATIYELKEDKSYQVTDVGFVQKRCMYVTHTFVPGSQPGEFTLGNIESYPGVTSALVRVVSTDYNQHAMVFVKLVKQNRELFEITLYGRTKELTSELKENFIRFSKSLGLPENHIVFPVPIDQCIDD
notes: biotinylated by NHS chemistry for capture in SPR; also called tag-free mutein 92
- Kd [14]: 0.01 nM
- cAMP assay IC50 [15]: 0.18 nM

B9: tag-free lipocalin mutein SEQ ID NO: 93 (designed binder)
chain: GQDSTSDLIHAPPLSKVPLQQNFQDNQFHGKWYVVGRAGNDVLREDKDPEKMEATIYELKEDKSYQVTDVGFVQKRCMYVTHTFVPGSQPGEFTLGNIESYPGVTSALVRVVSTDYNQHAMVFVKLVKQNRELFEITLYGRTKELTSELKENFIRFSKSLGLPENHIVFPVPIDQCIDD
notes: biotinylated by NHS chemistry for capture in SPR; also called tag-free mutein 93
- Kd [14]: 0.011 nM
- cAMP assay IC50 [15]: 0.13 nM
